Test system: K4 kissing-loop RNA reporter
Assay: apparent KD of K4 kissing-loop reporter; higher = weaker reporter binding
Details: Eterna round: R107
Method: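 RNA-MaP round R107: designed RNA switches with theophylline, tryptophan, arginine or FMN aptamers are transcribed on-chip within common flanks. They are titrated with a labelled K4 kissing-loop RNA reporter in RNA-MaP buffer (100 mM Tris pH 7.5, 80 mM KCl, 4 mM MgCl2), without ligand or with the indicated ligand. Median apparent KD per design.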

[1] = input ligand: theophylline 20 uM
[2] = input ligand: tryptophan 2.4 mM
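Further: bound reporter read as fluorescence of individual clusters on recovered sequencing chips by microscopy, with normalized cluster intensities fitted with a binding model.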

| Sequence | apparent KD of K4 kissing-loop reporter (input ligand: FMN 200 uM) | apparent KD of K4 kissing-loop reporter (input ligand: arginine 13.2 mM) | apparent KD of K4 kissing-loop reporter (input ligand: none) | apparent KD of K4 kissing-loop reporter [1] | apparent KD of K4 kissing-loop reporter [2] |
| --- | --- | --- | --- | --- | --- |
| AAACGCUGUGAAUAACACAGCGAAAAUUCGCGAGGACCGGUACGGCCGCCACUCGCUAACUGCGAGUGAUGUUCGAUAAUAAAAU [Mat - Mod of OpenEnded 3 - D11] | 182 nM | 94.8 nM | 198 nM | 210 nM | 105 nM |
| AAACGUUGGUGCGAUACCAGCUGAUCGGAAACGAUCUUGCUGGAGUGAUGUUCCAAGUAAAGCCCUUGGCAGCGCACCGACGAAA [MAT - Same State Theophlline B - Mod of Eli - D22] | 92.5 nM | 58.4 nM | 86.5 nM | 145 nM | 69.3 nM |
| AAACGUUGGUGCGAUACCAGCUUGAUCGGUAAACGAUCUACUGGAGUGAUGUUCCUAAAUAGCCCUUGGCAGCGCACCGACGAAA [MAT - Same State Theophlline B - Mod of Eli - D8] | 181 nM | 155 nM | 169 nM | 128 nM | 166 nM |
| AAACUUGCAGUGAUGUUGCAAGUAGGUGAUACCAGCAUCGAAAGAUGCCCUUGGCAGCACCAACACUGCAAGUAAGUAUCACCAA [(H1)-(H2)-(T1)-(T2)-(H)'-(T)'_Design1] | 116 nM | 138 nM | 128 nM | 161 nM | 111 nM |
| AAACUUGCAGUGAUGUUGCAAGUAGGUGAUACCAGCAUCGAAAGAUGCCCUUGGCAGCACCAUCUUGCAACAAAGGUGCUGCCAA [(H1)-(H2)-(T1)-(T2)-(H)'-(T)'_Design7] | 87.5 nM | 77.4 nM | 88.2 nM | 67.6 nM | 81.2 nM |
| AAAGAGUCACUCGAAGCUAUCGAAGAUAGGCGAGGACCGGUACGGCCGCCACUCGGAGUGAUGUUCCGAAGACUGUAAAAUAAAA [MatMod 12 - Jieux - Exclusion - Tryptophan A] | 208 nM | 240 nM | 206 nM | 170 nM | 295 nM |
| AAAGCAUUGAGAAGGAGCGUGACGUGGAGUGAUGUUCCAUUGUAGUAAUAAUUACUACUAUCACAGGUAGGUCGCUCAUUGCUAA [JR_Nu_SSArginiB_Sub024] | 183 nM | 159 nM | 181 nM | 161 nM | 180 nM |
| AAAUAGGUGUGCGAUACCAGCCGGAGUGAUGUUCCGUGUUGUACUGGCUGCACCUACGCCGGCCCUUGGCAGCGUGCUCCAUUUA [Enonin] | 177 nM | 140 nM | 169 nM | 263 nM | 148 nM |
| AAAUAUUCGAGUGAUGUUCGUUAAAUUACAGAGGAUAUGCUUAAAAGCAGAAGGCUGUAUUUCUAUUUGUUAUGUAAUUUUAAAA [JR_ExcFMNA_Sub004] | 117 nM | 209 nM | 157 nM | 196 nM | 115 nM |
| AAAUCUUUCAGAAGGAGCGUGGAUUAUUCAUAUAUAUUUAUUACGAGUGAUGUUCGUAAUUCACAGGUAGGUCGCUGUUCAAUAA [JR_ExcArginiB_Sub005] | 117 nM | 116 nM | 113 nM | 116 nM | 102 nM |
| AAAUGCUUGUAUUUGAACAAUUCCUUUAGGGAGGAUAUUGGUAAUACAAGAAGGCCCUGAUGGGAGUGAUGUUCCCAUAACGCGG [Exclusion FMN A GF16] | 114 nM | 95 nM | 90.8 nM | 90.2 nM | 91.1 nM |
| AAAUGUUUGUAUUUGAACAAUUUCUUUAGGGAGGAUAUUGGUAAUACAAGAAGGCCCUGAUGGGAGUGAUGUUCCCAUAACGCGG [Exclusion FMN A GF15] | 46.7 nM | 83.9 nM | 74 nM | 87.5 nM | 62.1 nM |
| AAAUUCUUUUUUUUAUUUAAGUUUUCAGAAGGAGCGUGGUAGUACACAGGUAGGUCGCUGAAUUUUGGGCUAGUGAUGUUAGUUA [whbob_SS_Arginine_A_sa114] | 144 nM | 195 nM | 200 nM | 191 nM | 160 nM |
| AAAUUUAUUAUAUUUGAAUAAAUAUGUGAUACCAGACAUUUAUAAGUCCCUUGGCAGCACAAUGCAGUGAUGUUGCUUAUAAUAA [JR_SSTheophyA_Sub018] | 89 nM | 110 nM | 93 nM | 182 nM | 73.8 nM |
| AAAUUUUAAAGUGAUACCAGACAUCUCAAUUACAUUAAUAAAGCUAAGUGAUGUUUAGCAGUCCCUUGGCAGCACAAUUUAAUUA [JR_SSTheophyB_Sub011] | 272 nM | 334 nM | 334 nM | 447 nM | 281 nM |
| AACCCAUGACUGGAUACCAGACUAUACAUGCUGAGUGAUGUUUAGCGGAGUCAUCUCUCGGUCCCUUGGCAGCCAACGUCACGCG [theeternabot_sameState_KL_Theo_B_33] | 614 nM | 334 nM | 646 nM | 403 nM | 373 nM |
| AACCGAGGUAAUCCACAAAGAUAACAUGAUACCAGAUAUAUAAAUAUCCCUUGGCAGCAUGGCAUGAGUGAUGUUCAUGUGUCUU [KL-SSTheo-A10] | 441 nM | 325 nM | 460 nM | 269 nM | 356 nM |
| AACGUUUUGAGAAGGAGCGCGUUCAGCAGUGAUGUUGCUUUACUUCAAUUUCUAGAUAAUUCGCAGGUAGGUCGCUCAAUACGUA [JR_Nu_ExcArginiB_Sub023] | 503 nM | 511 nM | 615 nM | 706 nM | 527 nM |
| AACUUGUUUGGAGGAUAUUCUUUAUUCGACAUAACCUUCUAUAAGGUGCAGUGAUGUUGCAAUAUAGGAGAAGGUCGAGUGAGAA [Exclusion FMN B Gf 16] | 207 nM | 169 nM | 206 nM | 219 nM | 186 nM |
| AAGACUGCAGGAAGGAGCGGCGGACGGAGUGAUGUUCCGGCUAGUGAUGUUAGCAAACACCGCCAGGUAGGUCGCCUGUUGCUCU [Same State Arginine B GF7] | 113 nM | 116 nM | 126 nM | 166 nM | 128 nM |
| AAGCAGUCACUCGUAUCCAUCGAAGAUGGUCGAGGACCGGUACGGCCGCCACUCGGAGUGAUGUUCCGAAGACUGCAAAAUAAAA [#SwitchBubble 13] | 240 nM | 230 nM | 250 nM | 296 nM | 348 nM |

| Sequence | apparent KD of K4 kissing-loop reporter (input ligand: FMN 200 uM) | apparent KD of K4 kissing-loop reporter (input ligand: arginine 13.2 mM) | apparent KD of K4 kissing-loop reporter (input ligand: none) | apparent KD of K4 kissing-loop reporter [1] | apparent KD of K4 kissing-loop reporter [2] |
| --- | --- | --- | --- | --- | --- |
| AAGCAUUCUUCGGAAUGCAGACCCGCUGAGGAGGAUAUGACGAAAGUCAGAAGGCCUCAGUGAUGUUGAGGCCUCCUCAAUGGUC [Omei KL FMN A Exc A v1] | 138 nM | 135 nM | 187 nM | 173 nM | 171 nM |
| AAGGCCACGAGAAGGAGCGUGUUGUGGAGUGAUGUUCCACUGUAGACCUAAGGUCUACAGGCACAGGUAGGUCGCUCGUGGUCAA [Omei KL Arginine B SS A v6] | 131 nM | 110 nM | 145 nM | 131 nM | 127 nM |
| AAGGUAUCACCAACAUUGCAAGAAGGUGAUACCAGCAUCGAAAGAUGCCCUUGGCAGCACCAACUUGCAGUGAUGUUGCAAGUAA [(T)'-(H)'-(T1)-(T2)-(H1)-(H2)_Design8] | 274 nM | 210 nM | 267 nM | 213 nM | 226 nM |
| AAGUAGCUCUCGGCCGCCACUCCUCAGUGAUGUUGAGAUAUUAAUUGCCAAUUGGCGUAUUUAAAGAGGACCGGGAGAGCUACAA [AK3 SS Tryptophan B] | 368 nM | 315 nM | 378 nM | 328 nM | 117 nM |
| AAGUCAUAGGCAGGAUAUGCAUUGUAAUAAGGCAAUAUAUACGUAUAGAGUGAUGUUUUGUACCAGGCAGAAGGGCUACAUCAGU [FMN B Excl V10 (+5A/U)] | 674 nM | 383 nM | 652 nM | 491 nM | 416 nM |
| AAGUGAUGUUGUAGUGAUGUUGUGAUGUUGCAGGAUAUAUAGUGAUGUAGAAGGGUAAGUACUGAUGUUGUUUGUGAGUGAUGUU [zrrszrmullin] | 99.2 nM | 44.9 nM | 78.6 nM | 66.9 nM | 76.2 nM |
| AAGUGAUGUUGUAGUGAUGUUGUGAUGUUGCAGGAUAUAUAGUGAUGUAGAAGGGUAUGUGCAGUGUUGUUAUUUGAGUGUUGAU [zffdmullin] | 89.7 nM | 41.4 nM | 78.7 nM | 73.8 nM | 66.9 nM |
| AAGUGUCAUUAGACACAGACUACAAUACACUAGGAUAUGCUGAUAAGCAGAAGGAGUGAUGUUCCUUUCAAGUAGUCAAUUAAAU [FmnAX 21 Mat Inspired #SwitchBubble #StaticStem #K4Late] | 237 nM | 148 nM | 143 nM | 178 nM | 140 nM |
| AAGUGUCAUUAGACACAGACUACAAUACGCUAGGAUAUGCUGAUAAGCAGAAGGAGUGAUGUUCCUUUCAAGUAGUCAAUUAAAU [FmnAX 22 Mat Inspired #SwitchBubble #StaticStem #K4Late] | 319 nM | 140 nM | 136 nM | 166 nM | 124 nM |
| AAGUGUGUGGCGGCCGCCACUAGAAUCCAGUGAUGUUGGAGAUAUCACGUAAGUGAUAUCCAACAUAGGACCGGGCCAUAUAGAA [Same State - Tryptophan B (Freestyle 12)] | 142 nM | 111 nM | 80.3 nM | 210 nM | 95.5 nM |
| AAGUUGAACUGAAGGAGCGAGAAAUAGAAUGUAAGAAUAUAUGCUAGUGAUGUUAGAAAUUCUCAGGUAGGUCGCAGUAAGUUUU [V2] | 363 nM | 418 nM | 474 nM | 407 nM | 285 nM |
| AAUAAAAGAUGUUUAGGAAAGCAAAUGGAAGGAGCGUGCGAAAGCACAGGUAGGUCGCCAGUGAUGUUGGCACCUGAGCAUCAAA [#SwitchBubble 18 #K4Late] | 251 nM | 285 nM | 303 nM | 336 nM | 264 nM |
| AAUAAAAUCACGGCCGCCACUGAAUAAUUACGAAGUAGUGAUGUUACUUCACAUAUCUUAUUUAACAGGACCGGGUGAAUAUUUA [#16 K4 Tryptophan B Exclusion] | 72.3 nM | 66.3 nM | 70.9 nM | 65.1 nM | 81.8 nM |
| AAUAACUAGUAUAUUUUUAAUAAUACAGAUACCAGUGAUAAUAAACACCCUUGGCAGCUGAUCGAGUGAUGUUCGUUUAUUUUAA [JR_SSTheophyA_Sub002] | 84 nM | 74.6 nM | 93.3 nM | 188 nM | 66.2 nM |
| AAUAAGCGCCGAAGGAGCGGCCUCCGAGUGAUGUUCGGUGAGAUGCCAGUGAUGUUGGCCGGCCAGGUAGGUCGCGGCAAAGCUU [Same State Arginine B GF 29] | 154 nM | 140 nM | 161 nM | 131 nM | 128 nM |
| AAUAAGUGUCAGCGAGUGAUGUUCGACGAUACCAGCCUCGAUAGAGGCCCUUGGCAGCGUAACGCAUGCCAAACUGGCACAAUAA [#SwitchBubble 7 #K4Early] | 500 nM | 497 nM | 557 nM | 393 nM | 441 nM |
| AAUAUAGUGAUGUUAUAUAAGAAGGAGUUACGAGGACCGGUACGGCCGCCACUCGAAACGAGUGAGGAUUUGGGAGAUUGGGUCC [SSTryptA.K] | 300 nM | 366 nM | 430 nM | 384 nM | 299 nM |
| AAUGCGCAGGGAAGGAGCGCCGUCCAGUGAUGUUGGAGUUAAAUACCAGUGAUGUUGGUUAGGCAGGUAGGUCGCCCUAAAGCGC [Exclusion Arginine B GF 1] | 118 nM | 79.9 nM | 92.1 nM | 98 nM | 83.8 nM |
| AAUGGGUGAUAAGGAUAUCCACCUCACAAACCAAGAGUGAUGUUCGUUGGUCCAUGGACAAUAUGUGGAGAAGGUAUAGUGAUUA [theeternabot_exclusion_KL_FMN_B_48] | 855 nM | 853 nM | 1000 nM | 747 nM | 700 nM |
| AAUGUACAGGGAAGGAGCGCCGUCCAGUGAUGUUGGAGUUAAAUACCAGUGAUGUUGGUUAGGCAGGUAGGUCGCCCUAUAGUAU [#07 K4 Arginine B Exclusion] | 126 nM | 92.9 nM | 117 nM | 134 nM | 108 nM |
